Values quoted from earlier work as cited in PMC7866529.
Where two headings read alike, the source gives them in different places.

Key:
S100B (Homo sapiens) [1] = molecular target: S100B (Homo sapiens) (UniProt P04271)
S100B (Homo sapiens) [2] = molecular target: S100B (Homo sapiens) (UniProt P04271); remark: listed apart in the source

| Substance | Kd (S100B (Homo sapiens) [1]) | Kd (S100B (Homo sapiens) [2]) |
| --- | --- | --- |
| S100B (from UniProt P04271) | < 0.5 nM | – |
| TRTK12 | – | 260 nM |
